Results as given in patent US20110091994A1, “Methods for Screening Compounds for Treating and/or Preventing an Hepatitis C Virus Infection” (priority 2008, published 2011).
Where two headings read alike, the source gives them in different places.

What was measured:
[1] = target: T1, HCV ORFs (Gal4-DB fusions) (Hepatitis C virus genotype 1b, UniProt Q9WMX2); type: binding, HCV genotype 1b, isolate con1; conditions: human protein as prey
T1 construct: expressed in transfected cells; host or cells: Saccharomyces cerevisiae MAV203 (IMAP1) / AH109 (IMAP2)

[2] = system: HCV ORFs (Gal4-DB fusions); type: binding, HCV genotype 1b, isolate con1; conditions: human protein listed by gene symbol; the value names the HCV protein it interacts with
HCV proteins = target: T2, HCV proteins (Hepatitis C virus genotype 1b, UniProt Q9WMX2); assay: Validation by Y2H pairwise matrices; type: binding;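 also: yeast two-hybrid pairwise tests of interactions first found in Y2H screens of HCV bait proteins against human cDNA libraries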
T2 construct: expressed in transfected cells

[3] = validation of interaction with HCV protein NS3
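For IMAP Y2H IMAP1 (number of IST) in this document: yeast two-hybrid screens using HCV genotype 1b proteins fused to Gal4-DB as baits against prey cDNA libraries from human spleen and foetal brain, IMAP1 via transformation and IMAP2 via mating.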
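For Interaction with viral protein in this document: yeast two-hybrid screens using HCV genotype 1b proteins fused to Gal4-DB as baits against prey cDNA libraries from human spleen and foetal brain, IMAP1 via transformation and IMAP2 via mating.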

| Molecule | IMAP Y2H IMAP1 (number of IST) ([1]; HCV protein NS3 as bait) | Interaction with viral protein [2] | Y2H matrices (HCV proteins; [3]) | IMAP Y2H IMAP1 (number of IST) ([1]; HCV protein NS4A as bait) | Y2H matrices (HCV proteins; validation of interaction with HCV protein NS4A) | IMAP Y2H IMAP1 (number of IST) ([1]; HCV protein NS2 as bait) | Y2H matrices (HCV proteins; validation of interaction with HCV protein NS2) |
| --- | --- | --- | --- | --- | --- | --- | --- |
| ZZZ3 (protein, UniProt Q8IYH5 1-903, looked up) ZZ-type zinc …: MAASRSTRVTRSTVGLNGLDESFCGRTLRNRSIAHPEEISSNSQVRSRSPKKRPEPVPIQKGNNNGRTTDLKQQSTRESWVSPRKRGLSSSEKDNIERQAIENCERRQTEPVSPVLKRIKRCLRSEAPNSSEEDSPIKSDKESVEQRSTVVDNDADFQGTKRACRCLILDDCEKREIKKVNVSEEGPLNSAVVEEITGYLAVNGVDDSDSAVINCDDCQPDGNTKQNSIGSYVLQEKSVAENGDTDTQTSMFLDSRKEDSYIDHKVPCTDSQVQVKLEDHKIVTACLPVEHVNQLTTEPATGPFSETQSSLRDSEEEVDVVGDSSASKEQCKENTNNELDTSLESMPASGEPEPSPVLDCVSAQMMSLSEPQEHRYTLRTSPRRAAPTRGSPTKNSSPYRENGQFEENNLSPNETNATVSDNVSQSPTNPGEISQNEKGICCDSQNNGSEGVSKPPSEARLNIGHLPSAKESASQHITEEEDDDPDVYYFESDHVALKHNKDYQRLLQTIAVLEAQRSQAVQDLESLGRHQREALKNPIGFVEKLQKKADIGLPYPQRVVQLPEIVWDQYTHSLGNFEREFKNRKRHTRRVKLVFDKVGLPARPKSPLDPKKDGESLSYSMLPLSDGPEGSSSRPQMIRGRLCDDTKPETFNQLWTVEEQKKLEQLLIKYPPEEVESRRWQKIADELGNRTAKQVASRVQKYFIKLTKAGIPVPGRTPNLYIYSKKSSTSRRQHPLNKHLFKPSTFMTSHEPPVYMDEDDDRSCFHSHMNTAVEDASDDESIPIMYRNLPEYKELLQFKKLKKQKLQQMQAESGFVQHVGFKCDNCGIEPIQGVRWHCQDCPPEMSLDFCDSCSDCLHETDIHKEDHQLEPIYRSETFLDRDYCVSQGTSYNYLDPNYFPANR | 1 | NS3 | + |  |  |  |  |
| ACTN1 (protein, UniProt P12814 1-892, looked up) Alpha-actinin-1: MDHYDSQQTNDYMQPEEDWDRDLLLDPAWEKQQRKTFTAWCNSHLRKAGTQIENIEEDFRDGLKLMLLLEVISGERLAKPERGKMRVHKISNVNKALDFIASKGVKLVSIGAEEIVDGNVKMTLGMIWTIILRFAIQDISVEETSAKEGLLLWCQRKTAPYKNVNIQNFHISWKDGLGFCALIHRHRPELIDYGKLRKDDPLTNLNTAFDVAEKYLDIPKMLDAEDIVGTARPDEKAIMTYVSSFYHAFSGAQKAETAANRICKVLAVNQENEQLMEDYEKLASDLLEWIRRTIPWLENRVPENTMHAMQQKLEDFRDYRRLHKPPKVQEKCQLEINFNTLQTKLRLSNRPAFMPSEGRMVSDINNAWGCLEQVEKGYEEWLLNEIRRLERLDHLAEKFRQKASIHEAWTDGKEAMLRQKDYETATLSEIKALLKKHEAFESDLAAHQDRVEQIAAIAQELNELDYYDSPSVNARCQKICDQWDNLGALTQKRREALERTEKLLETIDQLYLEYAKRAAPFNNWMEGAMEDLQDTFIVHTIEEIQGLTTAHEQFKATLPDADKERLAILGIHNEVSKIVQTYHVNMAGTNPYTTITPQEINGKWDHVRQLVPRRDQALTEEHARQQHNERLRKQFGAQANVIGPWIQTKMEEIGRISIEMHGTLEDQLSHLRQYEKSIVNYKPKIDQLEGDHQLIQEALIFDNKHTNYTMEHIRVGWEQLLTTIARTINEVENQILTRDAKGISQEQMNEFRASFNHFDRDHSGTLGPEEFKACLISLGYDIGNDPQGEAEFARIMSIVDPNRLGVVTFQAFIDFMSRETADTDTADQVMASFKILAGDKNYITMDELRRELPPDQAEYCIARMAPYTGPDSVPGALDYMSFSTALYGESDL | 9 | NS3 | + |  |  |  |  |
| ELAC2 (protein, UniProt Q9BQ52 17-826, looked up) Zinc phosphodiesterase ELAC …: SQGRTISQAPARRERPRKDPLRHLRTREKRGPSGCSGGPNTVYLQVVAAGSRDSGAALYVFSEFNRYLFNCGEGVQRLMQEHKLKVARLDNIFLTRMHWSNVGGLSGMILTLKETGLPKCVLSGPPQLEKYLEAIKIFSGPLKGIELAVRPHSAPEYEDETMTVYQIPIHSEQRRGKHQPWQSPERPLSRLSPERSSDSESNENEPHLPHGVSQRRGVRDSSLVVAFICKLHLKRGNFLVLKAKEMGLPVGTAAIAPIIAAVKDGKSITHEGREILAEELCTPPDPGAAFVVVECPDESFIQPICENATFQRYQGKADAPVALVVHMAPASVLVDSRYQQWMERFGPDTQHLVLNENCASVHNLRSHKIQTQLNLIHPDIFPLLTSFRCKKEGPTLSVPMVQGECLLKYQLRPRREWQRDAIITCNPEEFIVEALQLPNFQQSVQEYRRSAQDGPAPAEKRSQYPEIIFLGTGSAIPMKIRNVSATLVNISPDTSLLLDCGEGTFGQLCRHYGDQVDRVLGTLAAVFVSHLHADHHTGLPSILLQRERALASLGKPLHPLLVVAPNQLKAWLQQYHNQCQEVLHHISMIPAKCLQEGAEISSPAVERLISSLLRTCDLEEFQTCLVRHCKHAFGCALVHTSGWKVVYSGDTMPCEALVRMGKDATLLIHEATLEDGLEEEAVEKTHSTTSQAISVGMRMNAEFIMLNHFSQRYAKVPLFSPNFSEKVGVAFDHMKVCFGDFPTMPKLIPPLKALFAGDIEEMEERREKRELRQVRAALLSRELAGGLEDGEPQQKRAHTEEPQAKKVRAQ |  | NS4A |  | 1 | + |  |  |
| ZNF410 (protein, UniProt Q86VK4 1-478, looked up) Zinc finger protein 410: MLSDELESKPELLVQFVQNTSIPLGQGLVESEAKDITCLSLLPVTEASECSRLMLPDDTTNHSNSSKEVPSSAVLRSLRVNVGPDGEETRAQTVQKSPEFLSTSESSSLLQDLQPSDSTSFILLNLTRAGLGSSAEHLVFVQDEAEDSGNDFLSSESTDSSIPWFLRVQELAHDSLIAATRAQLAKNAKTSSNGENVHLGSGDGQSKDSGPLPQVEKKLKCTVEGCDRTFVWPAHFKYHLKTHRNDRSFICPAEGCGKSFYVLQRLKVHMRTHNGEKPFMCHESGCGKQFTTAGNLKNHRRIHTGEKPFLCEAQGCGRSFAEYSSLRKHLVVHSGEKPHQCQVCGKTFSQSGSRNVHMRKHHLQLGAAGSQEQEQTAEPLMGSSLLEEASVPSKNLVSMNSQPSLGGESLNLPNTNSILGVDDEVLAEGSPRSLSSVPDVTHHLVTMQSGRQSYEVSVLTAVNPQELLNQGDLTERRT | 1 | NS3 | + |  |  |  |  |
| POU3F2 (protein, UniProt P20265 1-443, looked up) POU domain, class 3, …: MATAASNHYSLLTSSASIVHAEPPGGMQQGAGGYREAQSLVQGDYGALQSNGHPLSHAHQWITALSHGGGGGGGGGGGGGGGGGGGGGDGSPWSTSPLGQPDIKPSVVVQQGGRGDELHGPGALQQQHQQQQQQQQQQQQQQQQQQQQQRPPHLVHHAANHHPGPGAWRSAAAAAHLPPSMGASNGGLLYSQPSFTVNGMLGAGGQPAGLHHHGLRDAHDEPHHADHHPHPHSHPHQQPPPPPPPQGPPGHPGAHHDPHSDEDTPTSDDLEQFAKQFKQRRIKLGFTQADVGLALGTLYGNVFSQTTICRFEALQLSFKNMCKLKPLLNKWLEEADSSSGSPTSIDKIAAQGRKRKKRTSIEVSVKGALESHFLKCPKPSAQEITSLADSLQLEKEVVRVWFCNRRQKEKRMTPPGGTLPGAEDVYGGSRDTPPHHGVQTPVQ |  | NS2 |  |  |  | 1 | + |
| ZNF281 (protein, UniProt Q9Y2X9 1-895, looked up) Zinc finger protein 281: MKIGSGFLSGGGGTGSSGGSGSGGGGSGGGGGGGSSGRRAEMEPTFPQGMVMFNHRLPPVTSFTRPAGSAAPPPQCVLSSSTSAAPAAEPPPPPAPDMTFKKEPAASAAAFPSQRTSWGFLQSLVSIKQEKPADPEEQQSHHHHHHHHYGGLFAGAEERSPGLGGGEGGSHGVIQDLSILHQHVQQQPAQHHRDVLLSSSSRTDDHHGTEEPKQDTNVKKAKRPKPESQGIKAKRKPSASSKPSLVGDGEGAILSPSQKPHICDHCSAAFRSSYHLRRHVLIHTGERPFQCSQCSMGFIQKYLLQRHEKIHSREKPFGCDQCSMKFIQKYHMERHKRTHSGEKPYKCDTCQQYFSRTDRLLKHRRTCGEVIVKGATSAEPGSSNHTNMGNLAVLSQGNTSSSRRKTKSKSIAIENKEQKTGKTNESQISNNINMQSYSVEMPTVSSSGGIIGTGIDELQKRVPKLIFKKGSRKNTDKNYLNFVSPLPDIVGQKSLSGKPSGSLGIVSNNSVETIGLLQSTSGKQGQISSNYDDAMQFSKKRRYLPTASSNSAFSINVGHMVSQQSVIQSAGVSVLDNEAPLSLIDSSALNAEIKSCHDKSGIPDEVLQSILDQYSNKSESQKEDPFNIAEPRVDLHTSGEHSELVQEENLSPGTQTPSNDKASMLQEYSKYLQQAFEKSTNASFTLGHGFQFVSLSSPLHNHTLFPEKQIYTTSPLECGFGQSVTSVLPSSLPKPPFGMLFGSQPGLYLSALDATHQQLTPSQELDDLIDSQKNLETSSAFQSSSQKLTSQKEQKNLESSTGFQIPSQELASQIDPQKDIEPRTTYQIENFAQAFGSQFKSGSRVPMTFITNSNGEVDHRVRTSVSDFSGYTNMMSDVSEPCSTRVKTPTSQSYR | 1 | NS3 | + |  |  |  |  |
